Values belong to the binder of their own block, whether it stands above or below them. Numbered stars: 1 amine (or outer) side, 2 acyl side, 3 side chain; on linkers, the order of the positions; unused ones are H or OH. Square brackets hold non-standard residues; d marks the D form. Ends that are not written are not given here. * marks the point of attachment. O(CA) = ornithine chloroamidine, N=C(CCl)NCCC[C@H](N[*:1])C(=O)[*:2]; Orn(fluoroacetimidoyl) = N=C(CF)NCCC[C@H](N)C(=O)O; 2Naphthylsulfonyl = O=S(=O)(c1ccc2ccccc2c1)*; AEEA = NCCOCCOCC(=O)O
Columns and labels:
Assay in all cases: cell-based or functional assay
[1] = target: T1, recombinant human PAD2 (human, UniProt Q9Y2J8 1-665)
T1 sequence (Q9Y2J8 whole entry): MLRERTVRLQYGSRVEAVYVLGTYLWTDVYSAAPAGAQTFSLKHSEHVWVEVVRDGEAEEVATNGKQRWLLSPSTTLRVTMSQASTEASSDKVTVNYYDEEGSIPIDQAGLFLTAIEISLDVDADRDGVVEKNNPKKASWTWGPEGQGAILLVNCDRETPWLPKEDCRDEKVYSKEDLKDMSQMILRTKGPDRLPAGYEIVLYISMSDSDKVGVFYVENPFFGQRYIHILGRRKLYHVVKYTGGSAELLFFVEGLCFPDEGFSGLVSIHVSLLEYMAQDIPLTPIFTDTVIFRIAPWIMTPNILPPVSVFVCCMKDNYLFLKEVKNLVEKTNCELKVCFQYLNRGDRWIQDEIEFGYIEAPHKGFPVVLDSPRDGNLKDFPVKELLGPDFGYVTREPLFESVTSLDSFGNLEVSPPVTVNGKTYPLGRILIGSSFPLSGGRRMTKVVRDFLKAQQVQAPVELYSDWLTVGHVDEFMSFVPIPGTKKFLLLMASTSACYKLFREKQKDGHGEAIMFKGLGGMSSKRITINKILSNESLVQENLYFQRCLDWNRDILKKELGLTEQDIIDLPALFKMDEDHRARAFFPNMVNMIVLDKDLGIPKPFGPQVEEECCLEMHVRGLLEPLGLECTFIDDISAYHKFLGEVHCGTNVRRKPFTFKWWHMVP

[2] = target: T2, recombinant human PAD4 (human, UniProt Q9UM07 1-663)
T2 sequence (Q9UM07 whole entry): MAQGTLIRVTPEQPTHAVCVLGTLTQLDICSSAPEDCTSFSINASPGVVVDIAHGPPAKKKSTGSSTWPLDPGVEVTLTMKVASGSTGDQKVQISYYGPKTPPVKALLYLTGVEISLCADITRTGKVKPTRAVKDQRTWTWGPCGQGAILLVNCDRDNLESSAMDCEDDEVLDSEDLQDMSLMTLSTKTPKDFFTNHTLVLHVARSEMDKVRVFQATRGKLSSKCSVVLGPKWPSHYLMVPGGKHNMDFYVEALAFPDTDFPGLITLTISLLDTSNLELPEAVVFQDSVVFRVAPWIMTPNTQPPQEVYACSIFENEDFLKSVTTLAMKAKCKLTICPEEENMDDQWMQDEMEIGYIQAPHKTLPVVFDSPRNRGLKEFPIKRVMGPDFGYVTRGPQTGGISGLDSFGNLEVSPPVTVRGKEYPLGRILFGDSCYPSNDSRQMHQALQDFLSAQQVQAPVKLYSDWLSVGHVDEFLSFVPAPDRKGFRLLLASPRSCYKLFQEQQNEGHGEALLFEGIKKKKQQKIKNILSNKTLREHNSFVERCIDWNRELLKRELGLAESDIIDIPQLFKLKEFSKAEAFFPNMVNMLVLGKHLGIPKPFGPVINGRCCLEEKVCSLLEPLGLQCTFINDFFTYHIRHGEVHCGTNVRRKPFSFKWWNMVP

[3] = target: T1, recombinant human PAD2; remark: listed apart in the source
[4] = target: T2, recombinant human PAD4; remark: listed apart in the source
[5] = target: T1, recombinant human PAD2; remark: listed apart in the source
[6] = target: T2, recombinant human PAD4; remark: listed apart in the source
[7] = target: T2, recombinant human PAD4; remark: listed apart in the source
[8] = target: T1, recombinant human PAD2; remark: listed apart in the source
[9] = target: T1, recombinant human PAD2; remark: listed apart in the source
[10] = target: T2, recombinant human PAD4; remark: listed apart in the source

IC50 values (µM), ABAP PAD activity assay [1]: 55 µM
IC50 values (µM), ABAP PAD activity assay [2]: 203 µM
B1: S-S-O(CA)-D-G (peptide)
peptide: SS[O(CA)]DG

IC50 values (µM), ABAP PAD activity assay [1]: 14 µM
IC50 values (µM), ABAP PAD activity assay [2]: 177 µM
B2: S-S-O(FA)-D-G (peptide)
peptide: SS[Orn(fluoroacetimidoyl)]DG

conversion of 0708-30 by PAD2, 10 µM inhibitor (0 µM: 68) [3]: 67%
conversion of 0708-30 by PAD2, 50 µM inhibitor (0 µM: 68) [3]: 36%
conversion of 0708-30 by PAD2, 100 µM inhibitor (0 µM: 68) [3]: 21%
conversion of 0708-30 by PAD4, 10 µM inhibitor (0 µM: 81) [4]: 50%
conversion of 0708-30 by PAD4, 50 µM inhibitor (0 µM: 81) [4]: 25%
conversion of 0708-30 by PAD4, 100 µM inhibitor (0 µM: 81) [4]: 12%
B3: 0748-01FA (peptide)
peptide: Ac-HFD[Orn(fluoroacetimidoyl)]EWI-NH2
SMILES: CC[C@H](C)[C@H](NC(=O)[C@H](Cc1c[nH]c2ccccc12)NC(=O)[C@H](CCC(=O)O)NC(=O)[C@H](CCCNC(=N)CF)NC(=O)[C@H](CC(=O)O)NC(=O)[C@H](Cc1ccccc1)NC(=O)[C@H](Cc1c[nH]cn1)NC(C)=O)C(N)=O

conversion of 0708-30 by PAD2, 10 µM inhibitor [5]: 39%
conversion of 0708-30 by PAD2, 50 µM inhibitor [5]: 13%
conversion of 0708-30 by PAD2, 100 µM inhibitor [5]: 6%
conversion of 0708-30 by PAD4, 10 µM inhibitor [6]: 45%
conversion of 0708-30 by PAD4, 50 µM inhibitor [6]: 12%
conversion of 0708-30 by PAD4, 100 µM inhibitor [6]: 9%
B4: 0741-03FA (peptide)
peptide: Ac-FFDSHKFD[Orn(fluoroacetimidoyl)]DFIYSD-NH2
SMILES: CC[C@H](C)[C@H](NC(=O)[C@H](Cc1ccccc1)NC(=O)[C@H](CC(=O)O)NC(=O)[C@H](CCCNC(=N)CF)NC(=O)[C@H](CC(=O)O)NC(=O)[C@H](Cc1ccccc1)NC(=O)[C@H](CCCCN)NC(=O)[C@H](Cc1c[nH]cn1)NC(=O)[C@H](CO)NC(=O)[C@H](CC(=O)O)NC(=O)[C@H](Cc1ccccc1)NC(=O)[C@H](Cc1ccccc1)NC(C)=O)C(=O)N[C@@H](Cc1ccc(O)cc1)C(=O)N[C@@H](CO)C(=O)N[C@@H](CC(=O)O)C(N)=O

IC50 values (µM), ABAP PAD activity assay [1]: 172 µM
IC50 values (µM), ABAP PAD activity assay [2]: 816 µM
B5: G-S-O(CA)-D-G (peptide)
peptide: GS[O(CA)]DG

Inhibition of PAD4: value at 10 µM inhibitor (0 µM: 71) [7]: 48%
Inhibition of PAD4: value at 20 µM inhibitor (0 µM: 71) [7]: 33%
Inhibition of PAD4: value at 40 µM inhibitor (0 µM: 71) [7]: 23%
Inhibition of PAD4: value at 80 µM inhibitor (0 µM: 71) [7]: 16%
Inhibition of PAD2: value at 10 µM inhibitor (0 µM: 74) [8]: 43%
Inhibition of PAD2: value at 20 µM inhibitor (0 µM: 74) [8]: 30%
Inhibition of PAD2: value at 40 µM inhibitor (0 µM: 74) [8]: 20%
Inhibition of PAD2: value at 80 µM inhibitor (0 µM: 74) [8]: 11%
B6: 0837-13FA (peptide)
peptide: Ac-KFD[Orn(fluoroacetimidoyl)]DFI[AEEA]-NH2
SMILES: CC[C@H](C)[C@H](NC(=O)[C@H](Cc1ccccc1)NC(=O)[C@H](CC(=O)O)NC(=O)[C@H](CCCNC(=N)CF)NC(=O)[C@H](CC(=O)O)NC(=O)[C@H](Cc1ccccc1)NC(=O)[C@H](CCCCN)NC(C)=O)C(=O)NCCOCCOCC(N)=O

Inhibition of PAD4: value at 10 µM inhibitor (0 µM: 71) [7]: 35%
Inhibition of PAD4: value at 20 µM inhibitor (0 µM: 71) [7]: 20%
Inhibition of PAD4: value at 40 µM inhibitor (0 µM: 71) [7]: 12%
Inhibition of PAD4: value at 80 µM inhibitor (0 µM: 71) [7]: 7%
Inhibition of PAD2: value at 10 µM inhibitor (0 µM: 74) [8]: 24%
Inhibition of PAD2: value at 20 µM inhibitor (0 µM: 74) [8]: 14%
Inhibition of PAD2: value at 40 µM inhibitor (0 µM: 74) [8]: 7%
Inhibition of PAD2: value at 80 µM inhibitor (0 µM: 74) [8]: 4%
B7: 0837-27FA (peptide)
peptide: 2Naphthylsulfonyl-KFD[Orn(fluoroacetimidoyl)]DFI[AEEA]-NH2
SMILES: CC[C@H](C)[C@H](NC(=O)[C@H](Cc1ccccc1)NC(=O)[C@H](CC(=O)O)NC(=O)[C@H](CCCNC(=N)CF)NC(=O)[C@H](CC(=O)O)NC(=O)[C@H](Cc1ccccc1)NC(=O)[C@H](CCCCN)NS(=O)(=O)c1ccc2ccccc2c1)C(=O)NCCOCCOCC(N)=O

conversion of 0708-30 by PAD2, 10 µM inhibitor (0 µM: 68) [3]: 58%
conversion of 0708-30 by PAD2, 50 µM inhibitor (0 µM: 68) [3]: 35%
conversion of 0708-30 by PAD2, 100 µM inhibitor (0 µM: 68) [3]: 24%
conversion of 0708-30 by PAD4, 10 µM inhibitor (0 µM: 81) [4]: 64%
conversion of 0708-30 by PAD4, 50 µM inhibitor (0 µM: 81) [4]: 32%
conversion of 0708-30 by PAD4, 100 µM inhibitor (0 µM: 81) [4]: 18%
B8: 0748-17FA (peptide)
peptide: Ac-KLH[Orn(fluoroacetimidoyl)]EWM-NH2
SMILES: CSCC[C@H](NC(=O)[C@H](Cc1c[nH]c2ccccc12)NC(=O)[C@H](CCC(=O)O)NC(=O)[C@H](CCCNC(=N)CF)NC(=O)[C@H](Cc1c[nH]cn1)NC(=O)[C@H](CC(C)C)NC(=O)[C@H](CCCCN)NC(C)=O)C(N)=O

Inhibition of PAD4: value at 10 µM inhibitor (0 µM: 71) [7]: 33%
Inhibition of PAD4: value at 20 µM inhibitor (0 µM: 71) [7]: 16%
Inhibition of PAD4: value at 40 µM inhibitor (0 µM: 71) [7]: 10%
Inhibition of PAD4: value at 80 µM inhibitor (0 µM: 71) [7]: 5%
Inhibition of PAD2: value at 10 µM inhibitor (0 µM: 74) [8]: 16%
Inhibition of PAD2: value at 20 µM inhibitor (0 µM: 74) [8]: 9%
Inhibition of PAD2: value at 40 µM inhibitor (0 µM: 74) [8]: 5%
Inhibition of PAD2: value at 80 µM inhibitor (0 µM: 74) [8]: 2%
B9: 0837-29FA (peptide)
peptide: 2Naphthylsulfonyl-KFD[Orn(fluoroacetimidoyl)]DFI-NH2

IC50 values (µM), ABAP PAD activity assay [1]: 34 µM
IC50 values (µM), ABAP PAD activity assay [2]: 153 µM
B10: T-D-O(CA)-G-S (peptide)
peptide: TD[O(CA)]GS

IC50 values (µM), ABAP PAD activity assay [1]: 17 µM
IC50 values (µM), ABAP PAD activity assay [2]: 178 µM
B11: G-D-O(FA)-S-G (peptide)
peptide: GD[Orn(fluoroacetimidoyl)]SG

conversion of 0708-30 by PAD2, 10 µM inhibitor (0 µM: 68) [3]: 47%
conversion of 0708-30 by PAD2, 50 µM inhibitor (0 µM: 68) [3]: 20%
conversion of 0708-30 by PAD2, 100 µM inhibitor (0 µM: 68) [3]: 11%
conversion of 0708-30 by PAD4, 10 µM inhibitor (0 µM: 81) [4]: 45%
conversion of 0708-30 by PAD4, 50 µM inhibitor (0 µM: 81) [4]: 18%
conversion of 0708-30 by PAD4, 100 µM inhibitor (0 µM: 81) [4]: 12%
B12: 0748-25FA (peptide)
peptide: Ac-KHD[Orn(fluoroacetimidoyl)]DFL-NH2
SMILES: CC(=O)N[C@@H](CCCCN)C(=O)N[C@@H](Cc1c[nH]cn1)C(=O)N[C@@H](CC(=O)O)C(=O)N[C@@H](CCCNC(=N)CF)C(=O)N[C@@H](CC(=O)O)C(=O)N[C@@H](Cc1ccccc1)C(=O)N[C@@H](CC(C)C)C(N)=O

IC50 values (µM), ABAP PAD activity assay [1]: 76 µM
IC50 values (µM), ABAP PAD activity assay [2]: 189 µM
B13: G-D-O(CA)-S-G (peptide)
peptide: GD[O(CA)]SG

IC50 values (µM), ABAP PAD activity assay, second round [9]: 58 µM
IC50 values (µM), ABAP PAD activity assay, second round [10]: 44 µM
B14: Y-D-O(CA)-G-S (peptide)
peptide: YD[O(CA)]GS

Inhibition of PAD4: value at 10 µM inhibitor (0 µM: 67) [7]: 54%
Inhibition of PAD4: value at 20 µM inhibitor (0 µM: 67) [7]: 39%
Inhibition of PAD4: value at 40 µM inhibitor (0 µM: 67) [7]: 29%
Inhibition of PAD4: value at 80 µM inhibitor (0 µM: 67) [7]: 21%
Inhibition of PAD2: value at 10 µM inhibitor (0 µM: 76) [8]: 38%
Inhibition of PAD2: value at 20 µM inhibitor (0 µM: 76) [8]: 24%
Inhibition of PAD2: value at 40 µM inhibitor (0 µM: 76) [8]: 14%
Inhibition of PAD2: value at 80 µM inhibitor (0 µM: 76) [8]: 8%
B15: 0837-14FA (peptide)
peptide: Ac-KWH[Orn(fluoroacetimidoyl)]DFF[AEEA]-NH2
SMILES: CC(=O)N[C@@H](CCCCN)C(=O)N[C@@H](Cc1c[nH]c2ccccc12)C(=O)N[C@@H](Cc1c[nH]cn1)C(=O)N[C@@H](CCCNC(=N)CF)C(=O)N[C@@H](CC(=O)O)C(=O)N[C@@H](Cc1ccccc1)C(=O)N[C@@H](Cc1ccccc1)C(=O)NCCOCCOCC(N)=O

IC50 values (µM), ABAP PAD activity assay, second round [9]: 38 µM
IC50 values (µM), ABAP PAD activity assay, second round [10]: 60 µM
B16: G-D-O(CA)-G-S (peptide)
peptide: GD[O(CA)]GS

IC50 values (µM), ABAP PAD activity assay [1]: 18 µM
IC50 values (µM), ABAP PAD activity assay [2]: 443 µM
B17: G-S-O(FA)-D-G (peptide)
peptide: GS[Orn(fluoroacetimidoyl)]DG

Inhibition of PAD4: value at 10 µM inhibitor (0 µM: 67) [7]: 37%
Inhibition of PAD4: value at 20 µM inhibitor (0 µM: 67) [7]: 24%
Inhibition of PAD4: value at 40 µM inhibitor (0 µM: 67) [7]: 13%
Inhibition of PAD4: value at 80 µM inhibitor (0 µM: 67) [7]: 7%
Inhibition of PAD2: value at 10 µM inhibitor (0 µM: 76) [8]: 9%
Inhibition of PAD2: value at 20 µM inhibitor (0 µM: 76) [8]: 3%
Inhibition of PAD2: value at 40 µM inhibitor (0 µM: 76) [8]: 2%
Inhibition of PAD2: value at 80 µM inhibitor (0 µM: 76) [8]: 1%
B18: 0837-30FA (peptide)
peptide: 2Naphthylsulfonyl-KWH[Orn(fluoroacetimidoyl)]DFF-NH2
SMILES: N=C(CF)NCCC[C@H](NC(=O)[C@H](Cc1c[nH]cn1)NC(=O)[C@H](Cc1c[nH]c2ccccc12)NC(=O)[C@H](CCCCN)NS(=O)(=O)c1ccc2ccccc2c1)C(=O)N[C@@H](CC(=O)O)C(=O)N[C@@H](Cc1ccccc1)C(=O)N[C@@H](Cc1ccccc1)C(N)=O

Inhibition of PAD4: value at 10 µM inhibitor (0 µM: 67) [7]: 37%
Inhibition of PAD4: value at 20 µM inhibitor (0 µM: 67) [7]: 23%
Inhibition of PAD4: value at 40 µM inhibitor (0 µM: 67) [7]: 17%
Inhibition of PAD4: value at 80 µM inhibitor (0 µM: 67) [7]: 9%
Inhibition of PAD2: value at 10 µM inhibitor (0 µM: 76) [8]: 17%
Inhibition of PAD2: value at 20 µM inhibitor (0 µM: 76) [8]: 8%
Inhibition of PAD2: value at 40 µM inhibitor (0 µM: 76) [8]: 4%
Inhibition of PAD2: value at 80 µM inhibitor (0 µM: 76) [8]: 2%
B19: 0837-28FA (peptide)
peptide: 2Naphthylsulfonyl-KWH[Orn(fluoroacetimidoyl)]DFF[AEEA]-NH2
SMILES: N=C(CF)NCCC[C@H](NC(=O)[C@H](Cc1c[nH]cn1)NC(=O)[C@H](Cc1c[nH]c2ccccc12)NC(=O)[C@H](CCCCN)NS(=O)(=O)c1ccc2ccccc2c1)C(=O)N[C@@H](CC(=O)O)C(=O)N[C@@H](Cc1ccccc1)C(=O)N[C@@H](Cc1ccccc1)C(=O)NCCOCCOCC(N)=O
